Assay: soluble on expression in E. coli; label from the status in PepcDB or PDB records

Sequence	soluble on expression in E. coli
MRTIKLIIAYDGTAYAGFQRQPNGITIQQRLEEALRAVTGEPDLRIGAAAGRTDAGVHARGQVVHLRTYATIPIDRWPAALNGHLPDDIAVIGAEEAPPDFHARYWAREKRYRYTFCLSPYRLPMARLYSYHWHRPVDVDAMRRAAALLVGRHDFAAFRATGGSARTTVRTITRLTLTEEPPFLHLDVTADGFLYNMVRIIAGTLLEVGAGRRSLDRVAQALRHGRREDAGRTLPPHGLCLEEVVYGDGPSIPPWAAEAAPDVDLEP	soluble
MRTIYVIGIGTGSPEFLTLQAISGLRHAQAIVALDKGEQKSDLLALRQKIVDTHAPGTPIYAVTDPERDRNPDNYEEEVRRWHAERAHLLASTIRERTPDDGAVAFLVWGDPSLYDSTLRIIEHMRNLEDLHADVKVIPGITAVQVLTAEHGILINRIGEAIHITTGRNLPETSAKDRRNCVVMLDGKTAWQDVATEHTYMWWGAFLGTEQQVLRKGYVHEIGAQVAELKQQLRTEHGWIMDTYLLRELD	soluble
MRTMKAPSMGATVEVLSFLQPVTRELVHRSSIAEVFVTDGVRTGENAFSVGAQWPRDHALYHPDENGLNDPLLFAETLRQAHFYGAHTYFGVPVGSRFIGQDVSFEITDPTALRVGAAPLAVVLNGTWTEERDRRGRPAGARLDVTLTVDGRPCGRGHTRGLMLDDRRYRLLRGRPAASGEVSPPRPAPDARIARPNRVGRLRWKDCVLERDRPDQDWRLRVDRDHAVLFDHPTDHVPLMVMLEGFRQLGHLTVHEASRRTLGDRAFALAGLSLDCAAFGELGETILLSLEKGPSEGVPTEECALRVAAHQGERLLARADMTWKCVGSRAPWSRFASWLEHHHHHH	not soluble
MRTQWPSPAKLNLFLYITGQRADGYHTLQTLFQFLDYGDTISIELRDDGDIRLLTPVEGVEHEDNLIVRAARLLMKTAADSGRLPTGSGANISIDKRLPMGGGLGGGSSNAATVLVALNHLWQCGLSMDELAEMGLTLGADVPVFVRGHAAFAEGVGEILTPVDPPEKWYLVAHPGVSIPTPVIFKDPELPRNTPKRSIETLLKCEFSNDCEVIARKRFREVDAVLSWLLEYAPSRLTGTGACVFAEFDTESEARQVLEQAPEWLNGFVAKGANLSPLHRAMLLEHHHHHH	not soluble
MRTVAALLFLFTCLESFESSSATPVCTNGFTLINNKCLKLLNTPVNHKAAEISCSSFGATLVTVKNDHDNQAIATIVGSSTPLVWLGLYCFSSNSSQCLWDDESGSARSYNNFSSGFPLVALGQCVYYSTQGALTGKWLSAECESQRMAFVCELPTTFADNCLHNYNGYCYTFSSSPQTFIGAQSTCAQTCGNLASVHSPNENRYITTFAPQDYYYIGAIWKTDYSLRWMDGSAWDYNNIDPIYPNRYNYCLHMSTITTSGSGFWYGDDCSLSRKYVCKREAGVPCTTVPPPVTVRPSSTNPSNCNAGLLMSPGVFTSPNYPQNYFNNENCTYQLSTLGSYRITLKFSNFRTESNYDFVSVYDGPTTSSPSLGRYSGNIGSFYVSSSENNMLVTFTSDAGVVFQGFTARFYSVVHRS	not soluble
MRTVVVIPTYNERDTIERLINDVLAQDKDIHVLVVDDNSPDGTGEIVDRLSEGKGRVHVLHRPGKMGLGSAYRQGFAAALAMDADFIVEMDADYSHDPATLPRFLEAMEGCDLVIGSRYLNGISVVNWPLRRLMLSYFANWYTRLITGLRIMDCTSGFKCFRRRVIESIDMSTIRSDGYSFQIEMNYRCVEKGFQVREIPIIFIDRRSGSSKMSKKIVREAVFMVWKLKLGSVFGALFRLEHHHHHH	not soluble
MRVATFSLVAQDPKTGDLGVAVASKFLAVGAVVPFAEAGVGAIATQSYANPRYGPQGLALLRQGASPEGVLEAFRRTDPGLEKRQFGLVAATGESLTFTGAECHPWAGGVAGKGFAAQGNLLSGSEVVEAMVETFLTAQAPFPERLLLALKAGEEAGGDRRGKQSAALLVVGEGKGYGGLWDRYVDLRVDDHPEPIDELFRLLSLHRLLFERPKGRRPLTEEEVRFFQGVLGRLGLYAGEAHGVFDEATERAFLALIGMENLEERYRGGPEVDEATLSYLKGRYGWS	soluble
MRVAYVLSSPRAASHKLGQMILPQLEAGTHGVEVVGIFFFDDNTLVLQKGNPIGERLAKVAKEKGILLMMCDLCALERGLAEGEPRWCTPEGEGRKTPGTCRVSPHVVEGVEVGCFPDLYRALAGRVDQVITL	soluble
MRVDEFLKERNINVGDFVRITKEEDGEEVTYEGYIMPPYELSAGDTLVLKLENGYNIGIALEKIRRIEVLERAKVKPEVHFEALIEGKPGLPEVTIIGTGGTIASRIDYETGAVYPAFTAEELAKALPEIFEVANVKPKLLFNIFSEDMKPKHWVKIAHEVAKALNSGDYGVVVAHGTDTMGYTAAALSFMLRNLGKPVVLVGAQRSSDRPSSDAAMNLICSVRMATSEVAEVMVVMHGETGDTYCLAHRGTKVRKMHTSRRDAFRSINDVPIAKIWPNGEIEFLRKDYRKRSDEEVEVDDKIEEKVALVKVYPGISSEIIDFLVDKGYKGIVIEGTGLGHTPNDIIPSIERAVEEGVAVCMTSQCIYGRVNLNVYSTGRKLLKAGVIPCEDMLPETAYVKLMWVLGHTQNLEEVRKMMLTNYAGEITPYTRFDTYLR	soluble
MRVISGEYGGRRLKALDGDNTRPTTDKVKESIFNMIGPYFDGGMALDLYSGSGGLAIEAVSRGMDKSICIEKNFAALKVIKENIAITKEPEKFEVRKMDANRALEQFYEEKLQFDLVLLDPPYAKQEIVSQLEKMLERQLLTNEAVIVCETDKTVKLPETIGTLKKTRETVYGITQVTIYRQEA	soluble
MRVMAKIELLAKFTQIALPNSHPLLKKVLNYAKKHFSQCHMLSSSLLILNDTECFKKNYLLNWVYHALECVHEKDISAHSLEEVLQKSHLPIRIKIMAQNTLLEKIEVKVLTFGAEYALFITKHPIAKRFLRQKFSGCVFLETQDELHIRGDSERFWELIVTLNENRIVHNACLDFIYPNGFGKDSYTTMAERKLKECYKTLGFIKHEDFSEVKKRYLELAKTYHPDLCDLKEKKALYAKRFAIIQEAYRHIKKHALEHHHHHH	soluble
MRWKRTLQLLDVHCEGEIGRVVTGGAPKIPGNTVAEQLHWMNTDPQGEALRRFLTLEPRGTPMGSVDLLLPPKHPDAHAAFVILQPDQAHASSGSNSICATTALLESGMVEMQEPETVIILETAAGLVKATATCRDGRCEKVKLTMVPSFVHELDVSIDTPEWGRVTMDISYGGIFYALVDVRQIGLTIEKANAAKLVAAGMTLKDLVNREMTVVHPEIPAISGVAYVMFRDVDADGSIRTCTTMWPGRADRSPCGTGNSANLATLYARGKVKVGDEYKSRSIIGSEFDVGLSAVTEVAGRPAVIPTIAGRGFTFGLHQVGLDPFDPLGDGFAMTDVWGPEAGNI	not soluble
MRYEIADNYYAFWFRFVYPNRKLVERELYKEALELVKRDYNHYMGRVFEKASLDFLWKRFAFERAGRWWSREEEIDVVGVKRGMAYFFEVKWKDLSEREARRSLEHHHHHH	not soluble
MRYIMASPINSGIMMANLCPSTFLDKNRNVAAELDIKNNEKKYSPGSNFAKWMLQEIKRLILNIMSGSRSINTDILDYFHPMPGTENNGNRTWVAATGEDEYIEIKQTGDKSFNITLVGRDKPSRKEIPYSGVAVATIIKSLSEKTSALETHSADTVLRKKLVNSIVMKNTDFNYEIPAGILSNIYDLLKLRIKKDEGYVPVQESFKRTDVFFDSMIMDAH	not soluble
MRYQKLEIQEANWQWKYLLKKHREGENITKHTEQSLIELKVQFLTTLQHSPAEIEQWIKAEMTAEQRKRMRQSIRAKRKRFFNAEKLTTKKKSIDLDYASWLRLSKYSKTHAMTLSETINHLIDERENQHLYSEQMAKMKASLKDLLK	not soluble
MRYWLMKSEPSEVSIDDLAARPGQTVPWDGVRNYQARNFMRNQMQPGDLVFFYHSSCPEPGIAGVVEVSRLAYPDETQFDSASKYFDPKSTRENPRWFNVEVRFLRKTRLLSLRELRSYPELAGMRILQKGNRLSITPVDPSEWKFIEAKLQSLEHHHHHH	not soluble
MSAACWEEPWGLPGGFAKRVLVTGGAGFIASHMIVSLVEDYPNYMIINLDKLDYCASLKNLETISNKQNYKFIQGDICDSHFVKLLFETEKIDIVLHFAAQTHVDLSFVRAFEFTYVNVYGTHVLVSAAHEARVEKFIYVSTDEVYGGSLDKEFDESSPKQPTNPYASSKAAAECFVQSYWEQYKFPVVITRSSNVYGPHQYPEKVIPKFISLLQHNRKCCIHGSGLQTRNFLYATDVVEAFLTVLKKGKPGEIYNIGTNFEMSVVQLAKELIQLIKETNSESEMENWVDYVNDRPTNDMRYPMKSEKIHGLGWRPKVPWKEGIKKTIEWYRENFHNWKNVEKALEPFPV	soluble
MSAEGLDKDFCGAIIPDSFFPIEKLRNYTDMGIIREFAKGSAIIMPGEDTTSMIFLMDGKIKLDIIFEDGSEKLLYYAGSNSLIGRLYPTGNNIYATAMEQTRTCWFSEECLRVIFRTDEDMIFEIFKNYLTKVAYYARQVAEINTYNPTIRILRLFYELCSSQGKRVGDTYEITMPLSQKSIGEITGAHHVTVSKVLACLKKENILDKKKNKFIVYNLEELKHLSEQTSYY	soluble
MSAEPEFVAARFLPEGERFLVEPLGGGLINRTWLVSPAASPRFVLQRLNTRVFAHPGRITVNLCRIQGRVKQGRSGLAEHWPDLVAPRAGGDAFIDAEGGYWRAQRYLEGSRVLEHIATERQALEVGRVLGTFHAALGEIDCTELEDTLPDFHIAPAYLARLDAVRTSAGAADPSVRQALDFVEARRDFVPVLERAKAAGRLALRIIHGDPKLANILFDRDGERALTLIDLDTVKPGLVHYDIGDCLRSCCNRSGESSDDPGAARFDLALCEAILRGYLAAAGDMLTAEDRDHLYDAIRLIPLELGIRFLADHLAGDVYFRVESRGQNLRRARVQFRLVECIEADETAIRRIVAAPSPSMETGEGLEHHHHHH	not soluble
MSAEYGQYGYYGGAGGAQTTTTPAAALAASIPATSVYGEQRPTFSEDGTGAPYSTILNLVGSAAVNSDISYDTSSKDPHMIRARVFIGNIARAIITRDDIIELFRPFGKIIAVNYFAQQGFGFVQFNEAGSADESCRSLNGMSWKACCLDVHLAMLGSLRKPTGNEGRQGNTIAPAPLPVGKPLTQHAVDTSAQSAKRPYEDEEYEIFKQNKRNKQFANGDTTINEQLAPNEMCDTMVCGYCRFVTSDFEEFKEHRIAGCNKYKDPEEPRHRLKCATCSQRFLGAWGLLEHLTDFHRMLLYTEEKMTPNDLAQMRGGSVSTPSSIPETPASGSAAPAAPNSANSTPSHHIVEGAPLSYSSNNGTPQI	not soluble
MSAISPDTKSFAIPTLADEGSSSKPASSLDLPKHESIRFKPIKTLASRIDGSEYYDEASMEKVMEMLEIGRTDEAVAYADTLYSNIIDDEQQDIVTIAEYVKILVVLRQWRRISHIIARGNYHQIHIVFAYYAATALFQRKLYEDVAELSVGHLLPSNGQIGPLPVRTLSQVTGRYVEEERMKYSFANMAELDNSSKKLRMVPALMITIAESFLKLMNRDAAMICINYALSLDNTTLHVERLMAKYNLVEPAMWEKYRKVRNEQLKLHEGNHDPRILMERAQRAYEMGRFRETKKITDELFDLFGPHPECIILRIHCLTMLKDSRSLLELGHQLVSDDPHIPLPWYCVAMYYYSIGANSRARNFISKCTMMDSTFAEGWVAFGHILHYEVEHEQSMSCYYRASKLVDKSSEPFLYTSLQYSTHSQKLSKKFMGEAVARAPNDPLIRHEEACVAYTAKSYAEADILFRTVLYMVTETDEIIPIEEVLKKKIDDFWHPMLNNIGHIARRQGRLNEAIMFYQKAIRMEPKFVDAIASTALCYAVLGNIDKATEFFNKALAIDPFNETIRQCLSKMIQASKESYSVDQQTLPPAYNSETYFGAQEILPYCAIRKPRNDGFVVPSIVSSSQPFMSMLRDRLRRQDQLYAQEPDNDAGNQV	not soluble

— the DeepSol protein solubility set
